The target in the test is wild-type Bacteroides fragilis glutamate decarboxylase (BfGADWT) (Bacteroides fragilis). Description: SEC. On the technique in general: In gel filtration, larger molecules generally elute earlier.

Regarding “wild-type Bacteroides fragilis glutamate decarboxylase (BfGADWT) (enzyme)”, the stoichiometry N (in general, the number of molecules, sites or subunits per partner or assembly) amounted to 6.
